Test results published in patent EP4714976A1 (Sunshine Lake Pharma Co., Ltd., dated 2026).

T1: FGFR4 (acro) (UniProt P22455 22-369)
T1 sequence (looked up): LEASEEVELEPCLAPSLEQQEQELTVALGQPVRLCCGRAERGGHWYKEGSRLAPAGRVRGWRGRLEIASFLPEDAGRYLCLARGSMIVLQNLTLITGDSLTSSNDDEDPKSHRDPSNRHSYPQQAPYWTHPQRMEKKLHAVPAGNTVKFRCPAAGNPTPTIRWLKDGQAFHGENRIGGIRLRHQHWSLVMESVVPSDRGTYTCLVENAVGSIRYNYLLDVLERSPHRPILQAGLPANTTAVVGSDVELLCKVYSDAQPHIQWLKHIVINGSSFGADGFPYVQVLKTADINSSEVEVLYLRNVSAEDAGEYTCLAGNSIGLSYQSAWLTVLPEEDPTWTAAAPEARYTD

B1: 2B2 scFv displayed on phage (scFv)
scFv: QLQLQQSGAELVKPGASVKMSCKASGYTFASYNLHWVKQTPGQGLEWIGLIYPENGDTSYNQKFKDKATLTADKSSTTAYIQLSSLASEDSAVYFCARGGFDYWGQGTTLTVSSGGGGSGGGGSGGGGSDIVMTQSQKFMSTSVGDRVSVTCKASQNVGTNVAWYQQKPGQSPKALIYSASYRYSGVPDRFTGSGSGTDYTLTISSVQAEDLALYYCQQHYSTPYTFGGGTKLELK
B2: 3E1 scFv displayed on phage (scFv)
scFv: QVQLQQPGAEVVKPGASVKMSCKASGYTFTDYYIHWVKQTPGQGLEWIGAIYPDNGDTSYNQKFKVKATLTADKSSSTAYMQLSSLTSEDSAVYYCARAFTYWGQGTLVTVSAGGGGSGGGGSGGGGSDILITQSPASLSASVGETVTITCGASENIYGALNWYQRKQGKSPQLLIYGATNLADGMSSRFSGSGSGRQYSLKISSLHPDDVATYYCQNVLSTPYTFGGGTKLEIK
B3: 1D7 scFv-Fc (Fc fusion)
chain: QIQLQQSGAELVKPGASVKMSCKASGYTFRYYNMHWVKRTPGQGLEWIGLIYPDNGDTSYNQKFKGKATLTADTSSSTAYMQLSSLTSEDSAVYYCARGGLDYWGQGTSLTVSSGGGGSGGGGSGGGGSDIQMTQSPSSMSASLGDRITITCQATQDIVKNLNWYQQKPGKPPSFLIYYATELAEGVPSRFSGSGSGSDYSLTISNLESEDFADYYCLQFYEFPLTFGAGTKLELKESKYGPPCPPCPAPEAAGGPSVFLFPPKPKDTLMISRTPEVTCVVVDVSQEDPEVQFNWYVDGVEVHNAKTKPREEQFNSTYRVVSVLTVLHQDWLNGKEYKCKVSNKGLPSSIEKTISKAKGQPREPQVYTLPPSQEEMTKNQVSLTCLVKGFYPSDIAVEWESNGQPENNYKTTPPVLDSDGSFFLYSKLTVDKSRWQEGNVFSCSVMHEALHNHYTQKSLSLSLG
notes: scFv-Fc dimer
B4: 1B8 scFv displayed on phage (scFv)
scFv: QIQLQQSGAELVKPGASVKMSCKASGYTFASYNLHWVKQTPGQGLEWIGLIYPENGDTSYNQKFKGKATLTADTSSTTAYIQLSSLTSEDSAVYFCARGGFDYWGQGTSLTVSSGGGGSGGGGSGGGGSDIKMTQSPASLSASVGETVTITCGASENIYGALNWYQRKQGKSPQLLIYGATNLADGMSSRFSGSGSGRQYSLKISSLHPDDVATYYCQNVLSTPYTFGGGTKLEIK
B5: 3D7 scFv-Fc (Fc fusion)
chain: QVQLQQSGAELVKPGASVKMSCKASGYTFSFYNMHWVKRTPGRGLEWIGLIYPDNGDTSYNQKFKGKATLTADTSSSTAYMQLSSLTSEDSAVYYCARGGLDYWGQGTSLTVSSGGGGSGGGGSGGGGSEIVLTQSPASLAVSLGQRATISCKASQSVDYDGDSYMNWYQQKPGQPPKLLIYGISNRFSGVPDRFSGSGSGTDFTLKISTIKPEDLGMYYCLQGTHQPYTFGGGTKLEIKESKYGPPCPPCPAPEAAGGPSVFLFPPKPKDTLMISRTPEVTCVVVDVSQEDPEVQFNWYVDGVEVHNAKTKPREEQFNSTYRVVSVLTVLHQDWLNGKEYKCKVSNKGLPSSIEKTISKAKGQPREPQVYTLPPSQEEMTKNQVSLTCLVKGFYPSDIAVEWESNGQPENNYKTTPPVLDSDGSFFLYSKLTVDKSRWQEGNVFSCSVMHEALHNHYTQKSLSLSLG
notes: scFv-Fc dimer
B6: 3A3 scFv displayed on phage (scFv)
scFv: QVQLQQSGAELVKPGASVKMSCKASGYTFTTYNIHWVRQTPGQGLEWIGLIYPDNGDTSYNQKFKAKATLTADKSSSTAYMHLSSLTSEDSAVYYCARGGFDYWGQGTTLTVSSGGGGSGGGGSGGGGSDIVMTQSHKFMSTSVGDRVSITCKASQDVNTDVSWYQQKPGQSPKLLIYSASYRYTGVPTRFTGSGSGTDFTFTISGVQAEDLADYYCQQHYNTPYTFGGGTRLEIK
B7: 1D7 scFv displayed on phage (scFv)
scFv: QIQLQQSGAELVKPGASVKMSCKASGYTFRYYNMHWVKRTPGQGLEWIGLIYPDNGDTSYNQKFKGKATLTADTSSSTAYMQLSSLTSEDSAVYYCARGGLDYWGQGTSLTVSSGGGGSGGGGSGGGGSDIQMTQSPSSMSASLGDRITITCQATQDIVKNLNWYQQKPGKPPSFLIYYATELAEGVPSRFSGSGSGSDYSLTISNLESEDFADYYCLQFYEFPLTFGAGTKLELK
B8: 1A3 scFv-Fc (Fc fusion)
chain: QVQLQQPGAELVKPGASVKMSCKASGYTFASYNLHWVKQTPGQGLEWIGLIYPENGDTSYNQKFKGKATLTADKSSSTAYIQLSSLTSEDSAVYFCARGGFDYWGQGTTLTVSQGGGGSGGGGSGGGGSDIQMTQSPASLSASVGETVTITCGASENIYGALNWYQRKQGKSPQLLIYGATNLADGMSSRFSGSGSGRQYSLKISSLHPDDVATYYCQNVLSTPYTFGGGTKLEIKESKYGPPCPPCPAPEAAGGPSVFLFPPKPKDTLMISRTPEVTCVVVDVSQEDPEVQFNWYVDGVEVHNAKTKPREEQFNSTYRVVSVLTVLHQDWLNGKEYKCKVSNKGLPSSIEKTISKAKGQPREPQVYTLPPSQEEMTKNQVSLTCLVKGFYPSDIAVEWESNGQPENNYKTTPPVLDSDGSFFLYSKLTVDKSRWQEGNVFSCSVMHEALHNHYTQKSLSLSLG
notes: scFv-Fc dimer
B9: 3E2 scFv displayed on phage (scFv)
scFv: EIQLQQSGAELVKPGASVKMSCKASGYTFSFYNMHWVKRTPGQGLEWIGLIYPDNGDTSYNQKFKGKATLTADTSSSTAYMQLSSLTSEDSAVYYCARGGLDYWGQGTSLTVSSGGGGSGGGGSGGGGSNIVMTQSQKFMSTSVGDRVSVTCKASQNVGTNVAWYQQKPGQSPKALIYSASYRYTGVPDRFTGSGSGTDFTFTISSVQAEDLAVYYCQQHYSTPYTFGGGTKLEIK
B10: 3G10 scFv displayed on phage (scFv)
scFv: EVQLQQSGPELVKPGASVKMSCKASGYTFATYNMHWVKQTTGQGLEWIGAIYPDNGDTFYNRKFKDKATLTADKSSTTAYMQLSSLTSEDSAVYYCARGDFAYWGQGTLVTVSAGGGGSGGGGSGGGGSDVLMTQSPASLSASVGETVTITCGASENIYGALNWYQRKQGKSPQLLIYGATNLADGMSSRFSGSGSGRQYSLKISSLHPDDVATYYCQNVLSTPYTFGGGTKLEMK
B11: 3G10 scFv-Fc (Fc fusion)
chain: EVQLQQSGPELVKPGASVKMSCKASGYTFATYNMHWVKQTTGQGLEWIGAIYPDNGDTFYNRKFKDKATLTADKSSTTAYMQLSSLTSEDSAVYYCARGDFAYWGQGTLVTVSAGGGGSGGGGSGGGGSDVLMTQSPASLSASVGETVTITCGASENIYGALNWYQRKQGKSPQLLIYGATNLADGMSSRFSGSGSGRQYSLKISSLHPDDVATYYCQNVLSTPYTFGGGTKLEMKESKYGPPCPPCPAPEAAGGPSVFLFPPKPKDTLMISRTPEVTCVVVDVSQEDPEVQFNWYVDGVEVHNAKTKPREEQFNSTYRVVSVLTVLHQDWLNGKEYKCKVSNKGLPSSIEKTISKAKGQPREPQVYTLPPSQEEMTKNQVSLTCLVKGFYPSDIAVEWESNGQPENNYKTTPPVLDSDGSFFLYSKLTVDKSRWQEGNVFSCSVMHEALHNHYTQKSLSLSLG
notes: scFv-Fc dimer
B12: 1G6 scFv displayed on phage (scFv)
scFv: EIQLQQSGAELVKPGASVKMSCKASGYTFRYYNMHWVKRTPGQGLEWIGLIYPDNGDTSYNQKFKGKATLTADTSSSTAYMQLSSLTSEDSAVYYCARGGLDYWGQGTSLTVSSGGGGSGGGGSGGGGSNIVMTQSHKFMSTSVGDRVSITCKASQDVNTDVAWYQQKPGQSPKLLIYSASYRYTGVPTRFTGSGSGTDFTFTISGVQAEDLADYYCQQHYNTPYTFGGGTKLELK

Experiments:
[1] = biological target: T2, extracellular domain of FGFR2c protein (Example 1) (UniProt P21802 22-377); assay: phage ELISA
T2 construct: extracellular domain
T2 sequence (P21802 22-377): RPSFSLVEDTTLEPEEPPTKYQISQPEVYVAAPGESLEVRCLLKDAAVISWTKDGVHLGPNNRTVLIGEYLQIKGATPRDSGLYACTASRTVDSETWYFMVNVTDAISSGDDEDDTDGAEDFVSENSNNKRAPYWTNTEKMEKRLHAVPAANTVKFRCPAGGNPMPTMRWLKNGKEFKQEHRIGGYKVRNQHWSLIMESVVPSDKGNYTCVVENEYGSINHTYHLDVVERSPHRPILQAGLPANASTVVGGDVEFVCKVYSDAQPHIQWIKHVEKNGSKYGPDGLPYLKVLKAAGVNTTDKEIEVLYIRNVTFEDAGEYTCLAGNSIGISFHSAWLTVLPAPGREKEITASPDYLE

[2] = biological target: T2, extracellular domain of FGFR2c protein …; assay: phage ELISA; remark: listed apart in the source
[3] = biological target: T3, recombinant cynomolgus monkey FGFR2b (cynomolgus monkey); assay: ELISA, antibody 1ug/mL
T3 construct: extracellular domain; bought; also called cynomolgus macaque FGFR2b

[4] = biological target: T4, human FGFR2b (Kaixia Biotechnology, catalog number FGR-HM1BB) (human, UniProt P21802-3 22-378); assay: ELISA, FGFR2b coated at 1 µg/ml
T4 construct: extracellular domain; bought; also called hFGFR2b; human FGFR2b protein
T4 sequence (P21802 other isoform, or with tags, fused parts or gaps): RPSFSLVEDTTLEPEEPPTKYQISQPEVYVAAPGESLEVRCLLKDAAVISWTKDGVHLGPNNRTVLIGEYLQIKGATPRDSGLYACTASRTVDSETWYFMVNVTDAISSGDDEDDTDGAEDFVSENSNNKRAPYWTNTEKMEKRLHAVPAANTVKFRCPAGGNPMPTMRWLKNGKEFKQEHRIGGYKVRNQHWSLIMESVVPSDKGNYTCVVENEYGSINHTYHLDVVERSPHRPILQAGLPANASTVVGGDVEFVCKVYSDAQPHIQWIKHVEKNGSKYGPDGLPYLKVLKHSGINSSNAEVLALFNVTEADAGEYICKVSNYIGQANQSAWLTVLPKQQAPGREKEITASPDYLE

[5] = biological target: T5, FGFR2c (acro) (UniProt P21802 22-377); assay: ELISA, antibody 10 µg/mL
T5 sequence (P21802 22-377): as the sequence (P21802 22-377) above

[6] = biological target: T1, FGFR4 (acro); assay: ELISA
[7] = biological target: T5, FGFR2c (acro); assay: ELISA
[8] = biological target: T1, FGFR4 (acro); assay: ELISA, antibody 10 µg/mL
[9] = biological target: T4, human FGFR2b (Kaixia Biotechnology, …); assay: BLI, antibody on AHC2 sensor
[10] = biological target: T6, FGFR2b on KATO III cells (human, UniProt P21802-3 22-822); assay: flow cytometry, KATO III cells
T6 construct: whole, on cells; also called KATO III cells that overexpress FGFR2b
T6 sequence (P21802 other isoform, or with tags, fused parts or gaps): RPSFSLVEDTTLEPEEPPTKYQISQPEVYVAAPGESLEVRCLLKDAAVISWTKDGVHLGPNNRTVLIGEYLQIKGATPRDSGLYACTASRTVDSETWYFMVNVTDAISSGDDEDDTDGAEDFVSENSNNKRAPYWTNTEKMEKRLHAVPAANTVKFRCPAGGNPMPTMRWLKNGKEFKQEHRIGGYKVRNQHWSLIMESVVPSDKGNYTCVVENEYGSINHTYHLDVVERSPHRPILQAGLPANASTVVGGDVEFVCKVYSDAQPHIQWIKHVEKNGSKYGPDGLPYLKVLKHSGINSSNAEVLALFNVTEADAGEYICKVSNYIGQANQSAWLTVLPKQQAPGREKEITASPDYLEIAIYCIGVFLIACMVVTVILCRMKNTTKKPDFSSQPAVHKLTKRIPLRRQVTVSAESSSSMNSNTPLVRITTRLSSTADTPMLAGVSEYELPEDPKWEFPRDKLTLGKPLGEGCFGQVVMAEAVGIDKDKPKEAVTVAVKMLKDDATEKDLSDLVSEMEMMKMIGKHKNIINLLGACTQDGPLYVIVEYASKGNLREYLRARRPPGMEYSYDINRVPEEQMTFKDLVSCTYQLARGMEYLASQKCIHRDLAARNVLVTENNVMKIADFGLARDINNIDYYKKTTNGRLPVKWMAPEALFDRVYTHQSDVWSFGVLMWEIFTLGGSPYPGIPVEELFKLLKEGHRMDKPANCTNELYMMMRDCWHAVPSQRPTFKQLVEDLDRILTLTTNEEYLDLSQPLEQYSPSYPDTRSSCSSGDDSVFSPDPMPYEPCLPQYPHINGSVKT

Binder	OD (450 nm) value [1]	binding result [2]	OD (450 nm) value [3]	EC50 [4]	Kd [9]	koff [9]	kon [9]	EC50 [10]	also measured
B1	0.051	no binding	–	–	–	–	–	–	–
B2	0.056	no binding	–	–	–	–	–	–	–
B3	–	–	3.17	0.0154 µg/mL	4.51 nM	0.00208 s⁻¹	460000 M⁻¹ s⁻¹	0.167 µg/mL	OD (450 nm) value [5]: 0.091; binding result [6]: no binding (tested: 10 µg/mL); binding result [7]: no binding (tested: 10 µg/mL); OD (450 nm) value [8]: 0.156
B4	0.082	no binding	–	–	–	–	–	–	–
B5	–	–	3.3	0.0369 µg/mL	8.58 nM	0.00203 s⁻¹	236000 M⁻¹ s⁻¹	0.259 µg/mL	OD (450 nm) value [5]: 0.127; binding result [7]: no binding (tested: 10 µg/mL)
B6	0.05	no binding	–	–	–	–	–	–	–
B7	0.059	no binding	–	–	–	–	–	–	–
B8	–	–	3.27	0.00818 µg/mL	12.2 nM	0.00477 s⁻¹	392000 M⁻¹ s⁻¹	0.0656 µg/mL	binding result [6]: no binding (tested: 10 µg/mL); OD (450 nm) value [8]: 0.099
B9	0.036	no binding	–	–	–	–	–	–	–
B10	0.042	no binding	–	–	–	–	–	–	–
B11	–	–	3.12	0.0276 µg/mL	6.25 nM	0.00199 s⁻¹	318000 M⁻¹ s⁻¹	0.149 µg/mL	OD (450 nm) value [5]: 0.096; binding result [7]: no binding (tested: 10 µg/mL)
B12	0.073	no binding	–	–	–	–	–	–	–
